Assay results taken from the RNAGym collection of RNA variant scans (doi:10.1073/pnas.2313332121).
Variants at the floor of the assay were thinned out.

B1: TPR 5TU (parent)
chain: GGAUCUUCUCGAUCUAACAAAAAAGACAAAUCUGCCACAAAGCUUGAGAGCAUCUUCGGAUGCAGAGGCGGCAGCCUUCGGUGGCGCGAUAGCGCCAACGUUCUCAACUAUGACACGCAAAACGCGUGCUCCGUUGAAUGGAGUUUAUCAUG

Variants of: B1
Assay: polymerase ribozyme fitness, log enrichment relative to wild type (log ratio); higher = more active; in vitro selection for triplet polymerase activity
Procedure, shortened: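 One round of in vitro selection, in triplicate, was applied to PCR-built, transcribed mutant libraries of each subunit of a heterodimeric triplet polymerase ribozyme. The steps were annealing with a biotinylated primer, partner subunit and triplets, incubation frozen at −7 °C, gel excision of extended constructs, streptavidin-bead capture and RT-PCR. Fitness is the logarithm, base 2, of genotype enrichment over wild-type enrichment from inverse-variance-weighted replicate averages of Illumina-sequenced inputs and outputs, keeping genotypes with ≥10 input reads and ≥1 read per output.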

| Variant | polymerase ribozyme fitness (log ratio) |
| --- | --- |
| G46A U55A C63U U111C C125A | ≤ -4.2 |
| G46A A97U U109G A121G U135C | ≤ -4.2 |
| G48A G86C C123A C125G | -3.94 |
| G46C A64G A91C | ≤ -4.2 |
| G48C C51A C54A C63U G68A U77C G88A C96U A142G | ≤ -4.2 |
| U45A G58A G83A U148C | ≤ -4.2 |
| U45G C57A | 0.374 |
| G48A A150U | -0.592 |
| G48C U53C G136U | -3.16 |
| U45A A49G G83A C85U C99G U104C | ≤ -4.2 |
| A47U A49G A98G U101A | ≤ -4.2 |
| A47U G58C U61G G81A | -3.65 |
| G48A G84C G100C | ≤ -4.2 |
| G46C U53A G92U U111G U134C | ≤ -4.2 |
| G48U G92U U144C | -0.761 |
| G48C U61A U77A C125U U144A | ≤ -4.2 |
| U44G A60U A115C | ≤ -4.2 |
| G48C C85U U102G U104A C118U C125A | -4.14 |
| U44A C116G | -4.19 |
| G48U U55G C118G C131U A137C U145A | ≤ -4.2 |
| A47C C103G U135G | ≤ -4.2 |

| Variant | polymerase ribozyme fitness (log ratio) |
| --- | --- |
| G48A G62A G68C U78G C87A A91U A98U | ≤ -4.2 |
| G48A A73G C87G A89U C96A G136A | ≤ -4.2 |
| A47C C96A | -0.697 |
| U44A U134A | ≤ -4.2 |
| A47C U53A C95U G136C | -3.62 |
| G46C C57U U61G C75G A119U G141A | ≤ -4.2 |
| U44A G68U G92U A98G C99G | ≤ -4.2 |
| A47G U55A C79G C93U | ≤ -4.2 |
| U44A C93U C99A U111G A138G G152U | -3.36 |
| G46C A110G | ≤ -4.2 |
| G48A C75U C87A G143A | ≤ -4.2 |
| A47G G133C C149G | -3.65 |
| U44A G50C G84U G88A U139C G152A | ≤ -4.2 |
| G48C A91U G143C | ≤ -4.2 |
| U45A A106G | -1.7 |
| G46A G50A | -0.957 |
| A47C C51G C87U A89U A107G | ≤ -4.2 |
| U45A C93A G141A | -4.05 |
| A47G G62U A142G U146G | -4.12 |
| A47C C57A | -0.176 |
| U44A G67A U77G U78G C87A C95G | ≤ -4.2 |

| Variant | polymerase ribozyme fitness (log ratio) |
| --- | --- |
| U44C G88A U135A U139G | ≤ -4.2 |
| G46U C85A | -2.02 |
| G46C C93U C96U | -2.86 |
| G46C U101G A107U A137C | -4.12 |
| A47C C69A A89G G124A | -3.28 |
| A47C A107U C108A | ≤ -4.2 |
| A47C C51U U53A C54A G141U | -4.13 |
| U44G A49U G84A U90G C131U U135G G136A | ≤ -4.2 |
| A47C C57A C105A G126A | -3.51 |
| A47G G62U U145C U151A | ≤ -4.2 |
| G48C A64G G70U G94U U144G C149A | ≤ -4.2 |
| A47G C87U U101C | 0.535 |
| U45A G67A C79A A91U A121G | ≤ -4.2 |
| A47C U56A U78A U90G | ≤ -4.2 |
| A47C G59A G62C G67C G68C C99U A107U C114A A121G | ≤ -4.2 |
| U44A A73U C105G A120G | ≤ -4.2 |
| U45A A60G | -2.47 |
| U45A A47U U77G C114G A122U | ≤ -4.2 |
| G48C C96G C103G C105G A106G | -3.96 |
| A47U U55G G94A | -0.633 |
| G48C C63A G83A G133C | -3.98 |

| Variant | polymerase ribozyme fitness (log ratio) |
| --- | --- |
| A47U C96A G126A C129A A137U | ≤ -4.2 |
| A47U G62A U127C G133U | ≤ -4.2 |
| U45A G48U G50A G59C G68U C96U C131A A137C G152A | ≤ -4.2 |
| U44G A49C C93U C125U A150U | ≤ -4.2 |
| A47C C72G G83U A142G | ≤ -4.2 |
| G46C C75G G88A C114U | ≤ -4.2 |
| G46U A91C C105U C114U U146G | ≤ -4.2 |
| A47U C114U | -1.72 |
| A47C U56C G68A C125U | -4.09 |
| A47C C85U C118U U130A | -3.62 |
| A47U C51U C87U A113U G152A | -3.99 |
| A47C G50A U53G C69G U77A C85A C103G A113G G136C | ≤ -4.2 |
| U44A C131G | ≤ -4.2 |
| U44A G46C C87U | ≤ -4.2 |
| U45G C114U A119U | -2.4 |
| U44G G70C G83A C116A G152A | ≤ -4.2 |
| G46A G86C C118U A122U | -3.45 |
| G46C C76U U102C C116U A137C | ≤ -4.2 |
| U44G G50A C57G C72G C114A G140C | ≤ -4.2 |
| G48A G67U G80C C85U C132U | ≤ -4.2 |
